Results published in US20160326219A1, “OPTICALLY ACTIVATED RECEPTORS” (IST AUSTRIA (INSTITUTE OF SCIENCE AND TECHNOLOGY AUSTRIA), priority 2013, published 2016).

Key:
[1] = system: M38K cells; assay: Gene expression analysis, qPCR (M38K cells); assay type: cell-based, human
Experimental: 5×10^4 M38K cells were seeded into each well of a 6-well plates. After 24 h, cells were illuminated with a cycle of 5 min light/15 min dark for 48 h. Control cells were kept in the dark. Total RNA was extracted with TRIZOL (LifeTechnologies) and reverse transcribed with MMLV reverse transcriptase (Thermo Scientific). cDNAs corresponding to 50 ng RNA per sample were subjected to SYBR green qPCR on an Abi Prism 7500 Sequence Detection System using published primers (cf. Sakuma, 2012; #2508). GAPDH was used for normalization and fold change of expression level was calculated as 2-ddCt of illuminated versus non-illuminated cells.

[2] = system: M38K cells; assay: Stimulation and Western blot (M38K cells); assay type: cell-based, human; conditions: ~3 μW/mm^2
Excerpt: (§1) M38K and SPC212, two malignant pleural mesothelioma cell lines, were maintained in RPMI1640 supplemented with 10% FBS. Telomerase-immortalized microvascular hBE cells were maintained in Clonetics EGM2 MV endothelial growth medium (Lonza, Wakersville, Md.) supplemented with 5% FBS. For retrovirus generation, Opto-mFGFR1 or mCherry as control was subcloned into pQCXIP (Clontech, Mountain View, Calif.) using EcoRI and NotI restriction enzymes. Viral particles were generated in HEK293 cells by co-transfection with the helper plasmids pVSV-G and p-gag-pol-gpt. Supernatants were used to transduce M38K, SPC212 or hBE cells grown to 50% confluency in 6-well plates. Cells were selected with 0.8 μg/ml puromycin for 10 d and transgene expression was verified by immunoblotting.
(§2) For immunoblotting, 5×10^5 cells were seeded in each well of 6-well plates. After 24 h, medium was replaced with reduced serum medium (M38K, SPC212). After additional 20 h, cells were transferred to the stimulation incubator and illuminated for 1, 5 or 15 min or shielded from light. Cells were then either immediately or after additional 5, 15 or 30 min in the dark washed and lysed in 50 μl lysis buffer per well on ice. Lysates were sonicated and centrifuged (12000 g, 5 min, 4° C.). […] Chemiluminescence was developed with WesternC reagent (Biorad, Hercules, Calif.) and signals recorded on X-ray film (GE Healthcare).

[3] = system: SPC212 cells; assay: Stimulation and Western blot (SPC212 cells); assay type: cell-based, human; conditions: ~3 μW/mm^2
Excerpt: as §1, §2

[4] = system: blood endothelial cells; assay: Stimulation and Western blot (hBE cells); assay type: cell-based; conditions: ~3 μW/mm^2
Excerpt: as §1, §2

[5] = system: mFGFR1-related signaling pathways; assay: Detection of additional signaling pathways, Cignal Reporter assays (HEK293 cells); assay type: cell-based, human; conditions: ~3 μW/mm^2, FIG. 3
Experimental: Activation of additional mFGFR1-related signaling pathways was assayed with Cignal Reporter assays (Qiagen, Hilden, Germany) consisting of mixtures of inducible pathway focused transcription factor-responsive firefly luciferase constructs and a constitutively expressing Renilla luciferase construct. Cells were transfected with 100.3 ng total DNA per well (receptor and reporter at ratio of 1:300) using Lipofectamine 2000 and thereafter treated as described above for detection of MAPK signaling. Cells were processed with the Dual-Glo® Luciferase Assay System (Promega) and signals detected with the microplate reader.

[6] = system: M38K cells; assay: Cell cycle distribution by flow cytometry (M38K cells); assay type: cell-based, human
Experimental: Cell cycle distribution was analyzed by flow cytometry. 5×10^5 M38K cells were seeded in 25 cm^2 tissue culture flasks. After 24 h, cells were stimulated for 1 h or kept in the dark. After additional 24 h, cells were fixed in ethanol (70%), treated with 50 μg/ml RNAse A and 50 μg/ml propidium iodide (PI). Flow cytometry was performed on a FACSCalibur (BD Biosciences, Schwechat, Austria) and cell cycle distribution calculated with ModFit LT software (Verity Software House, Topsham, Me.).

[7] = system: M38K cells; assay: Cell proliferation, EdU incorporation (M38K cells); assay type: cell-based, human
Experimental: 2×10^4 M38K cells were seeded in each well of 96-well plates. After 24 h, cells were stimulated for 1 h or kept in the dark. FGF2 (Sigma, St. Louis, Mo.) was added as indicated. After 24 h, cells were incubated with 10 μM EdU for 2 h. Subsequently, newly synthesized DNA was stained with Click-iT EdU (Life Technologies) following the manufacturer's protocol and counterstained with 5 μg/ml Hoechst dye. Cells were photographed on a Nikon Ti300 inverted microscope. To determine the percentage of cells with newly synthesized DNA, Hoechst positive nuclei and EdU positive nuclei were counted.

B1: Opto-mFGFR1: chimeric receptor of mFGFR1 intracellular domain and VfAU1-LOV, SEQ ID NO: 58 (protein)
chain: MGSSKSKPKDPSQRLDMKSGTKKSDFHSQMAVHKLAKSIPLRRQVTVSADSSASMNSGVLLVRPSRLSSSGTPMLAGVSEYELPEDPRWELPRDRLVLGKPLGEGCFGQVVLAEAIGLDKDKPNRVTKVAVKMLKSDATEKDLSDLISEMEMMKMIGKHKNIINLLGACTQDGPLYVIVEYASKGNLREYLQARRPPGLEYCYNPSHNPEEQLSSKDLVSCAYQVARGMEYLASKKCIHRDLAARNVLVTEDNVMKIADFGLARDIHHIDYYKKTTNGRLPVKWMAPEALFDRIYTHQSDVWSFGVLLWEIFTLGGSPYPGVPVEELFKLLKEGHRMDKPSNCTNELYMMMRDCWHAVPSQRPTFKQLVEDLDRIVALTSNQEYLDLSIPLDQYSPSFPDTRSSTCSSGEDSVFSHEPLPEEPCLPRHPTQLANSGLKRRVETGPDYSLVKALQMAQQNFVITDASLPDNPIVYASRGFLTLTGYSLDQILGRNCRFLQGPETDPRAVDKIRNAITKGVDTSVCLLNYRQDGTTFWNLFFVAGLRDSKGNIVNYVGVQSKVSEDYAKLLVNEQNIEYKGVRTSNMLRRKTGGSGVDYPYDVPDYALD
modifications: mFGFR1-VfAU1-LOV
- Gene expression changes upon light stimulation [1]: EMT-like gene expression changes
- Phosphorylation upon blue light stimulation [2]: rapid phosphorylation of Opto-mFGFR1 and ERK1/2
- Phosphorylation upon blue light stimulation [3]: rapid phosphorylation of Opto-mFGFR1 and ERK1/2 as well as AKT and phospholipase Cy (PLCy)
- Phosphorylation upon blue light stimulation [4]: rapid phosphorylation of Opto-mFGFR1 and ERK1/2
- Activation of additional pathways linked to mFGFR1 in response to blue light [5]: activates
- Cell cycle distribution upon light stimulation [6]: a shift of cell cycle distribution towards the S-phase
- Proliferation (% of nuclei incorporating 5-ethynyl-2'-deoxyuridine) upon light stimulation [7]: increased proliferation
